Positions count from the first letter of the chain named.
T1: IL-2R CD122-CD132 on Jurkat-PD1+CD122+ cells (UniProt P14784 27-551; P31785 23-369)
T1 sequence (looked up) 1: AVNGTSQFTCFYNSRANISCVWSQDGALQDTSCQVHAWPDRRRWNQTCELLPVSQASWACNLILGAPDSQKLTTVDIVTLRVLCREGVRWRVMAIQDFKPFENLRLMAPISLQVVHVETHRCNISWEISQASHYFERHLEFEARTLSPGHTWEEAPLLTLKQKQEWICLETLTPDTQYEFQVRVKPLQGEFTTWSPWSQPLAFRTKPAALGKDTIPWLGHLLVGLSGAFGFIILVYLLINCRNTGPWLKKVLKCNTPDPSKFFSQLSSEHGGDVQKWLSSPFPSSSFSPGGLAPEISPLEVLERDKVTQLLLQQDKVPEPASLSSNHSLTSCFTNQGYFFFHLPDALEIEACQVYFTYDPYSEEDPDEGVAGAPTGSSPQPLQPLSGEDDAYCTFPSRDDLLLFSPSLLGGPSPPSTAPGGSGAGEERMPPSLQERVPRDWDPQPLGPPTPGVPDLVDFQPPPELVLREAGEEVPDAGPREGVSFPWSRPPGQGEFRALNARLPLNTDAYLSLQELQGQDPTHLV
T1 sequence (looked up) 2: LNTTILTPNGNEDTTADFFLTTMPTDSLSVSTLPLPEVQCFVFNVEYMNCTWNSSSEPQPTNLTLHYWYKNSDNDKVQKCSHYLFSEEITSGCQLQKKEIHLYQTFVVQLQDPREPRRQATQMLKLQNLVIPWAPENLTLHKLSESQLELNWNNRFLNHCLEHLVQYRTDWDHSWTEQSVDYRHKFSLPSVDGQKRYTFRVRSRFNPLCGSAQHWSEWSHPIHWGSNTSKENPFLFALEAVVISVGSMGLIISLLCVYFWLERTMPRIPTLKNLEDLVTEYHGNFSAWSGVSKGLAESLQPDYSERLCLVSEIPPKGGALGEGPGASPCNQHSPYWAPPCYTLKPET

B1: QAB373 (bispecific antibody, human IgG1, kappa, L234A L235A)
heavy 1: QVQLVQSGAEVKKPGASVKVSCKASGYTFTNFYIHWVRQAPGQGLEWMGSIYPNYGITAYNQKFKDRVTMTVDTSTSTAYMELRSLRSDDTAVYYCARGYSYAMDYWGQGTTVTVSSASVAAPSVFIFPPSDEQLKSGTASVVCLLNNFYPREAKVQWKVDNALQSGNSQESVTEQDSKDSTYSLSSTLTLSKADYEKHKVYACEVTHQGLSSPVTKSFNRGECDKTHTCPPCPAPEAAGGPSVFLFPPKPKDTLMISRTPEVTCVVVDVSHEDPEVKFNWYVDGVEVHNAKTKPREEQYNSTYRVVSVLTVLHQDWLNGKEYKCKVSNKALAAPIEKTISKAKGQPREPQVYTLPPSREEMTKNQVSLTCLVKGFYPSDIAVEWESNGQPENNYKTTPPVLDSDGSFFLTSKLTVDKSRWQQGNVFSCSVMHEALHNHYTQKSLSLSPGK
light 1: DIQMTQSPSSVSASVGDRVTITCSASQGISGDLNWYQQKPGKAPKLLIYHTSQLHSDVPSRFSGSGSGTDFTLTISSLQPEDFATYYCQGYSKDLLTFGGGTKLEIKSSASTKGPSVFPLAPSSKSTSGGTAALGCLVKDYFPEPVTVSWNSGALTSGVHTFPAVLQSSGLYSLSSVVTVPSSSLGTQTYICNVNHKPSNTKVDKRVEPKSC
heavy 2: EVQLVQSGAEVKKPGESLKISCKGSGYAFTNYLIEWVRQMPGKGLEWMGVINPGSGGTNYNEKFKGQVTISADKSISTAYLQWSSLKASDTAMYYCARWRGEGYYAYFDVWGQGTTVTVSSASTKGPSVFPLAPSSKSTSGGTAALGCLVKDYFPEPVTVSWNSGALTSGVHTFPAVLQSSGLYSLSSVVTVPSSSLGTQTYICNVNHKPSNTKVDKRVEPKSCDKTHTCPPCPAPEAAGGPSVFLFPPKPKDTLMISRTPEVTCVVVDVSHEDPEVKFNWYVDGVEVHNAKTKPREEQYNSTYRVVSVLTVLHQDWLNGKEYKCKVSNKALAAPIEKTISKAKGQPREPQVYTLPPSREEMTKNQVSLYCLVKGFYPSDIAVEWESNGQPENNYKTTPPVLDSDGSFFLYSKLTVDKSRWQQGNVFSCSVMHEALHNHYTQKSLSLSPGK
light 2: not shown
B2: RIB426 (bispecific antibody, human IgG1, kappa, L234A L235A)
heavy 1: B1 heavy 1 with S50R
light 1: B1 light 1 with L54R
heavy 2: B1 heavy 2
light 2: not shown
B3: MDS446 (bispecific antibody, human IgG1, kappa, L234A L235A)
heavy 1: QVQLVQSGAEVKKPGASVKVSCKASGYTFTNFYIHWVRQAPGQGLEWMGSIYPNYGITAYNQKFKDRVTMTVDTSTSTAYMELRSLRSDDTAVYYCARGYSYAMDYWGQGTTVTVSSASTKGPSVFPLAPSSKSTSGGTAALGCLVKDYFPEPVTVSWNSGALTSGVHTFPAVLQSSGLYSLSSVVTVPSSSLGTQTYICNVNHKPSNTKVDKRVEPKSCDKTHTCPPCPAPEAAGGPSVFLFPPKPKDTLMISRTPEVTCVVVDVSHEDPEVKFNWYVDGVEVHNAKTKPREEQYNSTYRVVSVLTVLHQDWLNGKEYKCKVSNKALAAPIEKTISKAKGQPREPQVYTLPPSREEMTKNQVSLTCLVKGFYPSDIAVEWESNGQPENNYKTTPPVLDSDGSFFLTSKLTVDKSRWQQGNVFSCSVMHEALHNHYTQKSLSLSPGK
light: DIQMTQSPSSVSASVGDRVTITCSASQGISGDLNWYQQKPGKAPKLLIYHTSQLHSDVPSRFSGSGSGTDFTLTISSLQPEDFATYYCQGYSKDLLTFGGGTKLEIKRTVAAPSVFIFPPSDEQLKSGTASVVCLLNNFYPREAKVQWKVDNALQSGNSQESVTEQDSKDSTYSLSSTLTLSKADYEKHKVYACEVTHQGLSSPVTKSFNRGEC
heavy 2: AIRLTQSPSSFSASTGDRVTITCKASQSVDYGGGNFHLRPRDLISNINVIVLELKGSETTFMCEYADETATIVEFLNRWITFSQSIISTLTPTSSSTKKTQLQLEHLLLDLQMILNGINNYKNPKLTRMLTFKFYMPKKATELKHLQCLEEELKPLEEVLNLAQSKGGGGDSYMNWYQQKPGKAPKLLIYAASNLESGVPSRFSGSGSGTDFTLTISSLQSEDFATYYCQQSNEDPYTFGGGTKVEIKGGGGSGGGGSGGGGSEVQLVQSGAEVKKPGESLKISCKGSGYAFTNYLIEWVRQMPGKGLEWMGVINPGSGGTNYNEKFKGQVTISADKSISTAYLQWSSLKASDTAMYYCARWRGEGYYAYFDVWGQGTTVTVSSGGGGSGGGGSQVQLVQSGAEVKKPGASVKVSCKASGYTFTNFYIHWVRQAPGQGLEWMGSIYPNYGITAYNQKFKDRVTMTVDTSTSTAYMELRSLRSDDTAVYYCARGYSYAMDYWGQGTTVTVSSASTKGPSVFPLAPSSKSTSGGTAALGCLVKDYFPEPVTVSWNSGALTSGVHTFPAVLQSSGLYSLSSVVTVPSSSLGTQTYICNVNHKPSNTKVDKRVEPKSCDKTHTCPPCPAPEAAGGPSVFLFPPKPKDTLMISRTPEVTCVVVDVSHEDPEVKFNWYVDGVEVHNAKTKPREEQYNSTYRVVSVLTVLHQDWLNGKEYKCKVSNKALAAPIEKTISKAKGQPREPQVYTLPPSREEMTKNQVSLYCLVKGFYPSDIAVEWESNGQPENNYKTTPPVLDSDGSFFLYSKLTVDKSRWQQGNVFSCSVMHEALHNHYTQKSLSLSPGK
B4: TMU471 (bispecific antibody, human IgG1, kappa, L234A L235A)
heavy 1: B3 heavy 1 with S50R
light: B3 light with L54R
heavy 2: B3 heavy 2 with S444R
B5: JLI141 (bispecific antibody, human IgG1, lambda, L234A L235A)
heavy 1: EVQLLESGGGLVQPGGSLRLSCAASGFTFSINAMTWVRQAPGKGLEWVSTISGSGFSTYYADSLKGRFTISRDNSKNTLYLQMNSLRAEDTAVYYCAKEVYGDYWGQGTLVTVSSASTKGPSVFPLAPSSKSTSGGTAALGCLVKDYFPEPVTVSWNSGALTSGVHTFPAVLQSSGLYSLSSVVTVPSSSLGTQTYICNVNHKPSNTKVDKRVEPKSCDKTHTCPPCPAPEAAGGPSVFLFPPKPKDTLMISRTPEVTCVVVDVSHEDPEVKFNWYVDGVEVHNAKTKPREEQYNSTYRVVSVLTVLHQDWLNGKEYKCKVSNKALAAPIEKTISKAKGQPREPQVYTLPPSREEMTKNQVSLTCLVKGFYPSDIAVEWESNGQPENNYKTTPPVLDSDGSFFLTSKLTVDKSRWQQGNVFSCSVMHEALHNHYTQKSLSLSPGK
light: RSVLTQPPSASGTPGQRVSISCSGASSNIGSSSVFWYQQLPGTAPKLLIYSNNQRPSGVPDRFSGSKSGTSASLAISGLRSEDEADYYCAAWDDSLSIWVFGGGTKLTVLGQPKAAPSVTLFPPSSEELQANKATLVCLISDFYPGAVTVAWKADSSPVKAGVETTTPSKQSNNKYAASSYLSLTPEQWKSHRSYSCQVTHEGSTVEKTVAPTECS
heavy 2: AIRLTQSPSSFSASTGDRVTITCKASQSVDYGGGNFHLRPRDLISNINVIVLELKGSETTFMCEYADETATIVEFLNRWITFSQSIISTLTPTSSSTKKTQLQLEHLLLDLQMILNGINNYKNPKLTRMLTFKFYMPKKATELKHLQCLEEELKPLEEVLNLAQSKGGGGDSYMNWYQQKPGKAPKLLIYAASNLESGVPSRFSGSGSGTDFTLTISSLQSEDFATYYCQQSNEDPYTFGGGTKVEIKGGGGSGGGGSGGGGSEVQLVQSGAEVKKPGESLKISCKGSGYAFTNYLIEWVRQMPGKGLEWMGVINPGSGGTNYNEKFKGQVTISADKSISTAYLQWSSLKASDTAMYYCARWRGEGYYAYFDVWGQGTTVTVSSGGGGSGGGGSEVQLLESGGGLVQPGGSLRLSCAASGFTFSINAMTWVRQAPGKGLEWVSTISGSGFSTYYADSLKGRFTISRDNSKNTLYLQMNSLRAEDTAVYYCAKEVYGDYWGQGTLVTVSSASTKGPSVFPLAPSSKSTSGGTAALGCLVKDYFPEPVTVSWNSGALTSGVHTFPAVLQSSGLYSLSSVVTVPSSSLGTQTYICNVNHKPSNTKVDKRVEPKSCDKTHTCPPCPAPEAAGGPSVFLFPPKPKDTLMISRTPEVTCVVVDVSHEDPEVKFNWYVDGVEVHNAKTKPREEQYNSTYRVVSVLTVLHQDWLNGKEYKCKVSNKALAAPIEKTISKAKGQPREPQVYTLPPSREEMTKNQVSLYCLVKGFYPSDIAVEWESNGQPENNYKTTPPVLDSDGSFFLYSKLTVDKSRWQQGNVFSCSVMHEALHNHYTQKSLSLSPGK

Molecular target: T1, IL-2R CD122-CD132 on Jurkat-PD1+CD122+ …
Assay: cell-based or functional assay

| Binder | EC50 value for pSTAT5 induction, Jurkat-PD-1+CD122+ cells |
| --- | --- |
| B1 | 70 pM |
| B2 | 0.12 nM |
| B3 | 60 pM |
| B4 | 60 pM |
| B5 | 0.2 nM |
